Source: patent US20220380446A1 (ABL BIO, published 2022)
Positions count from the first letter of the chain named. Like-named read-outs stand apart in the source and are kept apart here.

Legend:
[1] = molecular target: T1, human α-synuclein pre-formed fibrils (Human Alpha Synuclein Pre-formed Fibrils Type II, StressMarq SPR-317) (human, UniProt P37840 1-140); test: SPR Biacore T200, antibody captured on Protein A chip, α-syn PFF analyte, 1:1 model
Procedure: (§1) The equipment used was Biacore® (GE Healthcare, Model T200). Protein A (GE Healthcare, Cat: 29-1275-56) was used as a chip, 10 mM glycine-HCl pH 1.5 (GE Healthcare, Cat: BR-1003-54) was used as a regeneration buffer, and HBS-EP was used as a running buffer and an analyte dilution and sample dilution buffer. […] A capture phase was carried out at a contact time of 60 seconds and a flow rate of 30 μL/min was used for a stabilization period of 60 seconds, with the target resonance units (RU) of fibril set to 10 (theoretical). In an association phase, the association time was set to 60 seconds and a flow rate was set to 60 μL/min. In a dissociation phase, the dissociation time was set to 180 seconds, and a flow rate was set to 60 μL/min. In a regeneration phase, the flow rate was set to 30 μL/min, and the regeneration time was set to 60 seconds. A 1:1 binding model was used for fitting, and the Biacore® T200 Evaluation software (GE Healthcare) was used for the evaluation.

[2] = molecular target: T1, human α-synuclein pre-formed fibrils …; test: sandwich ELISA, antibody coated, α-syn PFF added, 7B7-biotin detection
Procedure: (§2) Specifically, the antibodies were diluted with PBS by six-fold serial dilution from 400 nM to 0.009 nM. The diluted antibodies were added to a 96-well plate at 100 μL/well for coating. The plate was sealed and incubated at 4° C. for 16 hours. After washing with phosphate-buffered saline with Tween® (PBS-T; 0.05% Tween® 20) five times, the plate was blocked with 5% BSA in PBS 200 μL/well at 37° C. for 2 hours. After washing with PBS-T five times, α-syn PFF (2 μg/mL, 100 μL/well in 2% BSA in PBS) was added to the plate and incubated at 37° C. for 2 hours. After washing with PBS-T five times, 7B7-biotin antibody (anti-α-syn antibody; 1 μg/mL/100 μL/well, in 2% BSA in PBS) was added and incubated at 37° C. for 2 hours. After washing with PBS-T five times, the plate was incubated with horseradish peroxidase (HRP)-bound streptavidin in PBS with 2% BSA (1:5000, 1 mg/mL stock, 20 ng/well, 100 μL/well) at 37° C. for 1 hour. After washing with PBS-T five times, 3,3′,5,5′-tetramethylbenzidine (TMB) (100 μL/well) was added and incubated at room temperature for 5 minutes. The reaction was stopped by the addition of 0.5 N H₂SO₄ (50 μL/well). Optical absorbance at 450 nm was measured by using a plate reader, with absorbance at 650 nm subtracted from the reading.

[3] = molecular target: T1, human α-synuclein pre-formed fibrils …; test: as above; remark: listed apart in the source
Procedure: as §2

[4] = molecular target: T1, human α-synuclein pre-formed fibrils …; test: as above; remark: listed apart in the source
Procedure: as §2

[5] = molecular target: T1, human α-synuclein pre-formed fibrils …; test: SPR Biacore T200, antibody captured on Protein A chip, α-syn PFF analyte, 1:1 model; remark: listed apart in the source
Procedure: as §1

[6] = molecular target: T1, human α-synuclein pre-formed fibrils …; test: sandwich ELISA, antibody coated, α-syn PFF added, 7B7-biotin detection; remark: listed apart in the source
Procedure: as §2

[7] = molecular target: T1, human α-synuclein pre-formed fibrils …; test: cell-based or functional assay
[8] = molecular target: T1, human α-synuclein pre-formed fibrils …; test: sandwich ELISA, antibody coated, α-syn PFF added, 7B7-biotin detection; remark: listed apart in the source
Procedure: as §2

[9] = molecular target: human α-synuclein oligomers (Dopamine HCL Stabilized Human Recombinant Alpha Synuclein Oligomers, StressMarq … (human, UniProt P37840 1-140)); test: sandwich ELISA, antibody coated, oligomeric α-syn added, 7B7-biotin detection
Procedure: Human α-syn oligomers from StressMarq (Dopamine HCL Stabilized Human Recombinant Alpha Synuclein Oligomers, SPR-466) was used as the oligomeric α-syn in the assay.
In this sandwich ELISA, test antibodies were diluted with PBS by five-fold serial dilution from 80 nM to 0.005 nM. The serially diluted antibodies were added to a 96-well plate at 100 μL/well for coating. The plate was sealed and incubated at 4° C. for 16 hours. After washing with PBS-T five times, the plate was blocked with 5% BSA in PBS 200 μL/well at 37° C. for 2 hours. After washing with PBS-T five times, oligomeric α-syn (2 μg/mL, 100 μL/well in 2% BSA in PBS) was added and incubated at 37° C. for 2 hours. After washing with PBS-T five times, 7B7-biotin antibody (1 μg/mL, 100 μL/well, in 2% BSA in PBS) were added and incubated at 37° C. for 2 hours. After washing with PBS-T five times, the plate was incubated with Streptavidin-HRP in 2% BSA in PBS (1:5000, 1 mg/mL stock, 20 ng/well, 100 μL/well) at 37° C. for 1 hour. After washing with PBS-T five times, TMB (100 μL/well) was added and incubated at RT for 5 minutes. The reaction was stopped by the addition of 0.5 N H₂SO₄ (50 μL/well).

[10] = molecular target: T1, human α-synuclein pre-formed fibrils …; test: SPR Biacore T200, antibody captured on Protein A chip, α-syn PFF analyte, 1:1 model; remark: listed apart in the source
Procedure: as §1

B1: hu1E4(V3_VL2) x Grabody B (bispecific antibody, human IgG1, kappa)
heavy 1: not shown
heavy 2: not shown
light: DVVMTQTPLSLSVTPGQPASISCRSSQSLVHSNGNTYLHWYLQKPGQSPQLLIYKVSNRFSGVPDRFSGSGSGTDFTLKISRVEAEDVGVYYCSQSTHVPRTFGQGTKLEIKRTVAAPSVFIFPPSDEQLKSGTASVVCLLNNFYPREAKVQWKVDNALQSGNSQESVTEQDSKDSTYSLSSTLTLSKADYEKHKVYACEVTHQGLSSPVTKSFNRGEC
notes: also called hu1E4(V3 VL2) × Grabody B
- Kd [1]: 98.2 pM
- koff [1]: 0.000992 s⁻¹
- kon [1]: 1.01e+07 M⁻¹ s⁻¹
- EC50 [2]: 285 pM

B2: hu1E4(V5_VL4) x Grabody B (bispecific antibody, human IgG1, kappa)
heavy 1: not shown
heavy 2: not shown
light: B1 light with T7S, S12P, P15L, L42Q, K44R, Q50R, Q105G, L109V
notes: also called hu1E4(V5 VL4) × Grabody B
- EC50 [3]: 284 pM
- Kd [1]: 167 pM
- koff [1]: 0.0016 s⁻¹
- kon [1]: 9.96e+06 M⁻¹ s⁻¹

B3: hu1E4(V6_VL3) x Grabody B (bispecific antibody, human IgG1, kappa)
heavy 1: not shown
heavy 2: not shown
light: B1 light with T7S, S12P, P15L, Y41F, L42Q, K44R, Q50R, L51R, Q105G, L109V
notes: also called hu1E4(V6 VL3) × Grabody B
- EC50 [3]: 1120 pM

B4: hu1E4(V2_VL2) x Grabody B (bispecific antibody, human IgG1, kappa)
heavy 1: not shown
heavy 2: not shown
light: B1 light
notes: also called hu1E4(V2 VL2) × Grabody B
- EC50 [2]: 364 pM

B5: hu1E4(V5_VL5) x Grabody B (bispecific antibody, human IgG1, kappa)
heavy 1: not shown
heavy 2: not shown
light: B1 light with T7S, S12P, P15L, L42Q, K44R, Q50R, Y92F, Q105G, L109V
notes: also called hu1E4(V5 VL5) × Grabody B
- EC50 [3]: 215 pM
- Kd [1]: 59 pM
- koff [1]: 0.00067 s⁻¹
- kon [1]: 1.14e+07 M⁻¹ s⁻¹

B6: hu1E4(V5_VL3) x Grabody B (bispecific antibody, human IgG1, kappa)
heavy 1: not shown
heavy 2: not shown
light: B1 light with T7S, S12P, P15L, Y41F, L42Q, K44R, Q50R, L51R, Q105G, L109V
notes: also called hu1E4(V5 VL3) × Grabody B
- EC50 [3]: 1100 pM

B7: hu1E4(V7_VL2) x Grabody B (bispecific antibody, human IgG1, kappa)
heavy 1: not shown
heavy 2: not shown
light: B1 light
notes: also called hu1E4(V7 VL2) × Grabody B
- Kd [1]: 143 pM
- koff [1]: 0.0015 s⁻¹
- kon [1]: 1.05e+07 M⁻¹ s⁻¹
- EC50 [2]: 418 pM

B8: chimeric 1E4 antibody (antibody, V domains shown)
VH: QVQLQQSGAELVRPGTSVKVSCKASGYAFTNYLIEWVKQRPGQGLEWIGVINPGSGGTNYNEKFKGKATLTADKSSSTAYMQLSSLTSDDSAVYFCASGNYDTYWGQGTLVTVSA
VL: DVVMTQTPLSLPVSLGDQASISCRSSQSLVHSNGNTYLHWYLQKPGQSPKLLIYKVSNRFSGVPDRFSGSGSGTDFTLKISRVEAEDLGVYFCSQSTHVPRTFGGGTKLEIK
notes: VH and VL of mouse 1E4 with human IgG1 and kappa constant regions; also called ch1E4; Ch1E4
- EC50 [4]: 209 pM
- EC50 [3]: 484 pM
- Kd [5]: 51.9 pM
- koff [5]: 0.00054 s⁻¹
- kon [5]: 1.04e+07 M⁻¹ s⁻¹
- Kd [1]: 51.9 pM
- koff [1]: 0.00054 s⁻¹
- kon [1]: 1.04e+07 M⁻¹ s⁻¹
- EC50 [6]: 1610 pM
- EC50 [2]: 554 pM
- phagocytosis of α-syn PFF by BV-2 cells (gMFI, FACS) [7]: 2 fold against ch9E4
- EC50 [8]: 876 pM

B9: recombinant mouse 1E4 (antibody, V domains shown)
VH: B8 VH
VL: B8 VL
notes: also called rm1E4
- EC50 [6]: 2590 pM

B10: mouse hybridoma 1E4 (antibody, V domains shown)
VH: B8 VH
VL: B8 VL
notes: Mouse 1E4 made by the hybridoma; also called hy1E4; mouse 1E4 antibody
- EC50 [9]: 6560 pM
- Saturation point [9]: 3.17

B11: hu1E4(V2_VL2) (antibody, human IgG1, V domains shown)
VH: QVQLVQSGAEVKKPGASVKVSCKASGYTFTNYLIEWVRQAPGQGLEWIGVINPGSGGTNYNEKFKGKVTLTADKSISTAYMELSRLRSDDTAVYYCASGNYDTYWGQGTLVTVSS
VL: B8 VL with P12S, S14T, L15P, D17Q, Q18P, K50Q, L88V, F92Y, G105Q
notes: Monospecific; human IgG1 and kappa constant regions
- EC50 [8]: 570 pM

B12: hu1E4(V1_VL1) (antibody, human IgG1, V domains shown)
VH: B11 VH with I48M, K67R, L70M, A72R, K74T
VL: B8 VL with V2I, P12S, S14T, L15P, D17Q, Q18P, K50Q, L88V, F92Y, G105Q
notes: Monospecific; fused to human IgG1 and kappa constant regions; also called humanized 1E4(V1_VL1); hu1E4(Ver.1_VL1)
- Kd [5]: 27.6 pM
- koff [5]: 0.000439 s⁻¹
- kon [5]: 1.59e+07 M⁻¹ s⁻¹
- EC50 [6]: 1100 pM
- EC50 [9]: 3460 pM
- Saturation point [9]: 3.16
- EC50 [8]: 619 pM
- Kd [10]: 30.2 pM
- koff [10]: 0.000415 s⁻¹
- kon [10]: 1.38e+07 M⁻¹ s⁻¹

B13: hu1E4(V8_VL4) (antibody, human IgG1, V domains shown)
VH: B11 VH with I48M, K67R, L70M
VL: B8 VL with T7S, S14T, D17Q, Q18P, L42Q, K44R, K50R, L88V, F92Y, L109V
notes: as for B11
- EC50 [4]: 139 pM
- Kd [5]: 51 pM
- koff [5]: 0.000854 s⁻¹
- kon [5]: 1.68e+07 M⁻¹ s⁻¹

B14: hu1E4(V7_VL2) (antibody, human IgG1, V domains shown)
VH: B11 VH with T28A, R38K, I48M, V68A
VL: B8 VL with P12S, S14T, L15P, D17Q, Q18P, K50Q, L88V, F92Y, G105Q
notes: as for B11
- EC50 [8]: 339 pM

B15: hu1E4(V9_VL4) (antibody, human IgG1, V domains shown)
VH: B11 VH with K67R, V68A
VL: B8 VL with T7S, S14T, D17Q, Q18P, L42Q, K44R, K50R, L88V, F92Y, L109V
notes: as for B11
- EC50 [4]: 114 pM
- Kd [5]: 96 pM
- koff [5]: 0.00137 s⁻¹
- kon [5]: 1.42e+07 M⁻¹ s⁻¹

B16: hu1E4(V3_VL2) (antibody, human IgG1, V domains shown)
VH: B11 VH with T28A, R38K
VL: B8 VL with P12S, S14T, L15P, D17Q, Q18P, K50Q, L88V, F92Y, G105Q
notes: as for B11
- EC50 [8]: 577 pM
